In PMC9337993 one finds binding and stoichiometry N data, which are given here for 3 substances.

In data set [1] the target is T1, Cys95Ala SynZur C95A (Synechococcus sp. WH8102) (UniProt Q7U3N0).
T1 sequence: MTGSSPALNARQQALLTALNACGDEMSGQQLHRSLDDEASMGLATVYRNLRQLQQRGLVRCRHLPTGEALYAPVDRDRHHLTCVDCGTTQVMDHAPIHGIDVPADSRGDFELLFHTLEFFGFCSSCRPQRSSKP
The data set is described as follows: EMSA. The following applies: EMSA: 10 mM Tris pH 8, 50 mM KCl, 2 mM MgCl2, 5% glycerol, 0.05 mg/ml BSA, 1 mM DTT, 3 mM spermidine, 5 ng DNA in 10 ul, room temperature 30 min, gel at 4 C …. Background: A gel shift assay detects complexes by their altered migration in electrophoresis.

Data set [2] concerns the target SynZur (SYNW2401), zinc uptake regulator Zur from Synechococcus sp. WH8102 (Synechococcus sp. WH8102). In words: crystal structure; X-ray, 2.1 Å, space group P65, four molecules (two dimers) in the asymmetric unit; 100 mM magnesium acetate, 100 mM MES pH 6, 16% PEG 10000, 4 °C.
The target is the same in data set [3]. The data set is described as follows: nondenaturing SDS-PAGE; 10% Tris-glycine gel, 50 mM Tris pH 7.3, 50 mM MOPS, 0.0375% SDS, 4 °C, 100 V.
Data set [4] shares this target. The data set is described as follows: native MS; native (near-native) ESI-MS, deconvoluted; WT after EDTA treatment (Zn1SynZur), Cys95Ala as purified.
The target is the same in data set [5]. In words: dynamic light scattering; 20 uM protein in 50 mM Tris, 25 °C; hydrodynamic diameter compared with values calculated for monomers, dimers and tetramers.
Data set [6] concerns the target Cys95Ala SynZur (Synechococcus sp. WH8102). In words: SEC; analytical SEC, Superdex 200 10/300, 0.5 ml/min; Zn2SynZur 40 uM, Cys95Ala SynZur 30 uM, in 20 mM Tris-HCl pH 8, 300 mM NaCl; methods give 50 mM Tris pH 8.0, 100 mM NaCl. (In general: Size exclusion chromatography separates by hydrodynamic size, large species first.)
Data set [7] has the same target. In words: native MS; native (near-native) ESI-MS, deconvoluted; WT after EDTA treatment (Zn1SynZur), Cys95Ala as purified.

Take “GTTCCATCCACAGCCACAACGCTTGGCTGGGCCGCCTGCGCCGCGACTGAACAACCCGAGACAACGCCCAGGGCGACCGCCAGACCCTTGACCAAAAGCGCAGGACGCGCCATGACACTCGAATGAGAATGATTATCATTTTTACAGTTCAACGGGTTGGCGCAACCCAATCGCGACCGCATGATGAAGTGAACCCACCGCAGCTGTGACAGAACCGCATTCGTCCATCAAGGGGCATCTAGCAGCCAGGAATCTC (double strand) [PznuA promoter (znuC-znuA intergenic fragment)]”: in data set [1], the binding result is listed as “no binding”.
The term stoichiometry N denotes the number of molecules, sites or subunits per partner or assembly. Regarding “SynZur (SYNW2401), zinc uptake regulator Zur from Synechococcus sp. WH8102 (natural protein)”, the stoichiometry N in data set [2], in data set [3], in data set [4] and in data set [5] was 2 each time.
On to Cys95Ala SynZur (natural protein), for which the stoichiometry N in data set [6] and in data set [7] was 2 each time.
